US20250236663A1 (NEURACLE SCIENCE, published 2025)
Values belong to the binder of their own block, whether it stands above or below them.

What was measured:
FAM19A5-M5 [1] = target: T1, FAM19A5-M5; assay: ELISA on phage-displayed FAM19A5 mutants; y axis without label; no blank in the panel, lowest bars about 0.05
T1 construct: also called FAM19A5 mutant M5
T1 FAM19A5 mutant: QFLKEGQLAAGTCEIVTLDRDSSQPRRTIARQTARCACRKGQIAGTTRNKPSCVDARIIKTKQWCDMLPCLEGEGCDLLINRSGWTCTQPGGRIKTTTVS

FAM19A5 mutant M8 = target: T2, FAM19A5 mutant M8 (human); assay: ELISA on phage-displayed FAM19A5 mutants; y axis without label
T2 construct: FAM19A5 with region 8 replaced by the consensus of FAM19A1-4; The entry already carries the changes
T2 chain: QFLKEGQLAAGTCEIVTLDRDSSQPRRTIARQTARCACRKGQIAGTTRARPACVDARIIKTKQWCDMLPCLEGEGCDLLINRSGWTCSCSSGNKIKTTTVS

FAM19A5-M1 = target: T3, FAM19A5-M1; assay: ELISA on phage-displayed FAM19A5 mutants; y axis without label; no blank in the panel
T3 construct: also called FAM19A5 mutant M1
T3 FAM19A5 mutant: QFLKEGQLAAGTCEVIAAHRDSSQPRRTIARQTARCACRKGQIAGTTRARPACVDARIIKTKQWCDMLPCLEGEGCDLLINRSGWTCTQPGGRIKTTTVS

FAM19A5-M3 = target: T4, FAM19A5-M3; assay: as above
T4 construct: also called FAM19A5 mutant M3
T4 FAM19A5 mutant: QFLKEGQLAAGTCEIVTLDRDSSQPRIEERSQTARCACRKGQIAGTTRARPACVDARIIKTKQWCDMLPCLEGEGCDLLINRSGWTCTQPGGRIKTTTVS

FAM19A5-M2 = target: T5, FAM19A5-M2; assay: as above
T5 construct: also called FAM19A5 mutant M2
T5 FAM19A5 mutant: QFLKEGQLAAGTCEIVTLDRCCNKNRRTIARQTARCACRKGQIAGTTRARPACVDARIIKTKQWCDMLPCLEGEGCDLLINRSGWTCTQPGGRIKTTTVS

FAM19A5-M4 = target: T6, FAM19A5-M4; assay: as above
T6 construct: also called FAM19A5 mutant M4
T6 FAM19A5 mutant: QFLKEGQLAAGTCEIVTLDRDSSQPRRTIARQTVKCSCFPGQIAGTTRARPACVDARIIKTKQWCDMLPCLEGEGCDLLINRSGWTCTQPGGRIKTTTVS

FAM19A5 mutant M7 = target: T7, FAM19A5 mutant M7 (human); assay: as above
T7 construct: FAM19A5 with region 7 replaced by the consensus of FAM19A1-4; The entry already carries the changes
T7 chain: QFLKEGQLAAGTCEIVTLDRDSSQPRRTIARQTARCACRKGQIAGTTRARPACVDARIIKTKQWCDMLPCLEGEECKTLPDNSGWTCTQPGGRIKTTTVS

FAM19A5 mutant M6 [2] = target: T8, FAM19A5 mutant M6 (human); assay: as above
T8 construct: FAM19A5 with region 6 replaced by the consensus of FAM19A1-4; The entry already carries the changes
T8 chain: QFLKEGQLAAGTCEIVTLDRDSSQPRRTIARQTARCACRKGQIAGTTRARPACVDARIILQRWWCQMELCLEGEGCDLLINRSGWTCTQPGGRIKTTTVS

FAM19A5-M5 [3] = target: T1, FAM19A5-M5; assay: as above
FAM19A5 mutant M6 [4] = target: T8, FAM19A5 mutant M6; assay: ELISA on phage-displayed FAM19A5 mutants; y axis without label; no blank in the panel, lowest bars about 0.05
FAM19A5 mutant M6 [5] = target: T8, FAM19A5 mutant M6; assay: ELISA on phage-displayed FAM19A5 mutants; y axis without label
[6] = target: T9, FAM19A5 fragment 5 mutant peptide F5-2 (#2) (human); assay: ELISA on the coated F5 mutant peptide
T9 construct: The entry already carries the alanine substitution and Ser for Cys; also called mutant peptide #2
T9 sequence (peptide, as listed by the source mutant): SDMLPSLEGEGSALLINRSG
Method: (§1) Overlapping peptide fragments (F1-F6, see FIG. 9) of the human FAM19A5 protein were synthesized and conjugated to BSA. Binding of the different anti-FAM19A5 antibodies to the BSA-conjugated peptide fragments F1-F6 was determined by Western blot analysis or ELISA assay. For the Western blot analysis, BSA-conjugated FAM19A5 fragments F1-F6 were separated by SDS polyacrylamide gel electrophoresis and transferred to a nitrocellulose membrane by the standard procedure. The membrane was incubated with the anti-FAM19A5 antibody (e.g., 1-65, 2 μg/ml, 1-65-scFv-rabbit Fc-SSS), and the antigen-antibody complexes were detected with the appropriate secondary antibody conjugated with horse-radish peroxidase (anti-rabbit IgG (Fc specific)-HRP, 1:4000 dilution). For the ELISA assay, the following protocol was used. FAM19A5 fragment F1-F6 (diluted to 1 μg/mL in 50 mM carbonate buffer (Biosesang) or to 20 μg/mL for high concentration analysis) were used to coat the wells of 96-well immuno plates (Thermo Scientific) (100 μL/well) overnight at 4° C. and then subsequently washed twice in 1×PBS. The plates were then blocked with the blocking buffer (100 μL/well) for 1 hour at room temperature. During the 1-hour incubation, the relevant anti-FAM19A5 antibodies were diluted to 1 μg/mL (or 20 μg/mL for high concentration analysis) in the diluent buffer. Once the plates were washed (2× using 1×PBS), the diluted anti-FAM19A5 antibodies were added to the appropriate wells, and the plates were incubated at room temperature for 1 hour. The plates were subsequently washed for a total of five times using the washing buffer. Next, the ODP substrate (prepared by dissolving one ODP tablet (O-phenylenediamine Dihydrochloride, Thermo) into 9 mL of sterilized deionized water and 1 mL of 10× stable Peroxide Stable buffer (Theromo)) was added to each of the wells, and the color change reaction was allowed to occur for 10 minutes. This reaction was stopped by adding 100 μL of 2N H2SO4 (Daejung) to the wells. The absorption value of each of the wells was detected at 492 nm using a 96-well microplate reader (Molecular Device).
(§2) Next, to identify the specific amino acid residues within the epitope fragment F5 that the 1-65 and P2-C12 antibodies bind to, different amino acid residues of the F5 fragment were replaced with alanine as shown in Table 9 (below).

[7] = target: T10, FAM19A5 fragment 5 mutant peptide F5-3 (#3) (human); assay: ELISA on the coated F5 mutant peptide
T10 construct: The entry already carries the alanine substitution and Ser for Cys; also called mutant peptide #3
T10 sequence (peptide, as listed by the source mutant): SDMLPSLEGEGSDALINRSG
Method: as §1, §2

[8] = target: T11, FAM19A5 fragment 5 mutant peptide F5-6 (#6) (human); assay: ELISA on the coated F5 mutant peptide
T11 construct: The entry already carries the alanine substitution and Ser for Cys; also called mutant peptide #6
T11 sequence (peptide, as listed by the source mutant): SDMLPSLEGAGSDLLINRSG
Method: as §1, §2

[9] = target: T12, FAM19A5 fragment 5 mutant peptide F5-8 (#8) (human); assay: ELISA on the coated F5 mutant peptide
T12 construct: The entry already carries the alanine substitution and Ser for Cys; also called mutant peptide #8
T12 peptide: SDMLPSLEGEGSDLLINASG
Method: as §1, §2

[10] = target: T13, FAM19A5 fragment 5 mutant peptide F5-1 (#1) (human); assay: ELISA on the coated F5 mutant peptide
T13 construct: The entry already carries the alanine substitution and Ser for Cys; also called mutant peptide #1
T13 peptide: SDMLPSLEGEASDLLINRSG
Method: as §1, §2

[11] = target: T14, FAM19A5 fragment 5 mutant peptide F5-5 (#5) (human); assay: ELISA on the coated F5 mutant peptide
T14 construct: The entry already carries the alanine substitution and Ser for Cys; also called mutant peptide #5
T14 peptide: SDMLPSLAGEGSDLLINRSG
Method: as §1, §2

[12] = target: T15, FAM19A5 fragment 5 mutant peptide F5-4 (#4) (human); assay: ELISA on the coated F5 mutant peptide
T15 construct: The entry already carries the alanine substitution and Ser for Cys; also called mutant peptide #4
T15 sequence (peptide, as listed by the source mutant): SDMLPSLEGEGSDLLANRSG
Method: as §1, §2

B1: Anti-FAM19A5 (P2-F11) (antibody, V domains shown)
VH: QEQLVESGGRLVTPGTTLTLTCTVSGFSLSSYGVSWVRQAPGKGLEWIGYIANNYNPHYASWAKGRFTISKTSSTTVDLKMTSLTTEDTATYFCARDNYGMDPWGPGTLVTVSS
VL: ELDLTQTPSSVSAAVGGTVTINCQASQSVYNNKNLAWYQQKPGQPPKLLIYAASTLASGVSSRFKGSGSGTQFTLTISDVQCDDAATYYCQGEFSCSSADCNAFGGGTELEIL
notes: Only variable domains are tied to the name
binding result (FAM19A5-M5 [1]): binds

B3: Anti-FAM19A5 (P1-F02) (antibody, V domains shown)
VH: QSLEESGGRLVTPGTPLTLTCTASGFSLSNYYMGWVRQAPGEGLEWIGIIYASGSTYYASWAKGRFTISKTSTTVDLKMTSLTTEDTATYFCARIDIGVGDYGWAYDRLDLWGQGTLVTVSS
VL: ELDMTQTPPSLSASVGETVRIRCLASEDIYSGISWYQQKPGKPPTLLIYGASNLESGVPPRFSGSGSGTDYTLTIGGVQAEDAATYYCLGGYSYSSITFGAGTNVEIK
notes: as for B1
binding result (FAM19A5 mutant M6 [4]): binds
binding result (FAM19A5-M5 [1]): binds

B4: Anti-FAM19A5 (P2-F07) (antibody, V domains shown)
VH: QSLEESGGRLVTPGTPLTLTCTASGFSLSSYYMNWVRQAPGKGLEWIGIIYPSGTTYYAGWAKGRFTISKTSTTVDLKITSPTSEDTATYFCARTVSGYFDIWGPGTLVTVSL
VL: ELDLTQTPPSLSASVGGTVTINCLASEDIYSALAWYQQKPGKPPTLLISGTSNLESGVPPRFSGSGSGTDYTLTIGGVQAEDAATYFCQGYSSYPLTFGAGTNVEIK
notes: as for B1
binding result (FAM19A5 mutant M6 [4]): binds
binding result (FAM19A5-M5 [1]): binds

B8: Anti-FAM19A5 (15A9) (antibody, V domains shown)
VH: QVQLQESGPGLVKPSETLSLTCTVSGGSISSYYWSWIRQPPGKGLEWIGYIYPSGSTNYNPSLKSRVTISVDTSKNQFSLNLKSVTAVDTAVYYCARVNPFGYYYAMDVWGQGTTVTVSS
VL: DIQMTQSPSSLSASVGDRITISCRASQSISTSLNWYQQTPGKAPRLLIYGASTLQSGVPSRFSGGGSGTDFSLTITSLQPEDFATYYCQESASIPRTFGQGTKLDIK
notes: as for B1
binding result (FAM19A5-M5 [3]): binds

The remaining lines, values ahead:

binding result (FAM19A5 mutant M8): no binding
binding result (FAM19A5-M1): binds
binding result (FAM19A5-M3): binds
binding result (FAM19A5-M2): binds
binding result (FAM19A5-M4): binds
binding result (FAM19A5 mutant M7): binds
binding result (FAM19A5 mutant M6 [2]): binds
binding result (FAM19A5-M5 [3]): binds
B2: Anti-FAM19A5 (13F7) (antibody, V domains shown)
VH: QVQLQEWGAGLLKPSETLSLTCAINAESFNGYSWTWIRQTPGKGLEWIGEISHFGSANYNPSLKSRATISADKSKNQFSLKLTSVTAVDTAVYYCARALRGTYSRFYYGMDVWGQGTTVTVSS
VL: DIVMTQTPLSLPVAPGEPASISCRSSQSLLHSNGYNYLDWYVQKPGQPPQLLIYLGSNRASGVPDRFSGSGSGTDFTLKISRVEAEDVGVYYCMQARQTPLTFGGGTKVEIK
notes: as for B1

binding result (FAM19A5 mutant M6 [5]): no binding
binding result (FAM19A5-M5 [1]): binds
O.D (492nm) [6]: 3.65
O.D (492nm) [7]: 3.84
O.D (492nm) [8]: 0.095
binding result [8]: no binding
O.D (492nm) [9]: 0.1
binding result [9]: no binding
O.D (492nm) [10]: 0.056
binding result [10]: no binding
O.D (492nm) [11]: 3.49
O.D (492nm) [12]: 3.86
B5: Anti-FAM19A5 (P2-C12) (antibody, V domains shown)
VH: QSLEESGGRLVTPGTPLTLTCTVSGFSLSTYAVTWVRQAPGKGLEWIGYINWRGGTSYANWAKGRFTISKTSSTTVDLKMTSPTTEDTATYFCARDASSGAAFGSYGMDPWGPGTLVTVSS
VL: ELDMTQTPSSVSAAVGGTVTIKCQASQSISSYLSWYQQKPGQPPKLLIYEASKLASGVPSRFSGSGYGTEFTLTISDLECADAATYYCQQGYSSTNVWNAFGGGTNVEIK
notes: Only variable domains are tied to the name; also called anti-FAM19A5 antibody P2-C12

binding result (FAM19A5 mutant M6 [4]): binds
binding result (FAM19A5-M5 [1]): binds
B6: Anti-FAM19A5 (P2-A01) (antibody, V domains shown)
VH: QEQLVESGGRLVTPGTPLTLSCTASGFFLSGYYMSWVRQAPGKGLEWIGIIYPSGSTDYASWAKGRFTISKTSTTVDLKITTPTTEDTATYFCARVAGYVGYGYETFFDIWGPGTLVTVSL
VL: ELVMTQTPPSLSASVGETVRIRCLASEDIYSGISWYQQKPGKPPTLLIYGASNLESGVPPRFSGSGSGSDYTLTIGGVQAEDAATYYCLGGVTYSSTGTHLTFGAGTNVEIK
notes: as for B1

binding result (FAM19A5 mutant M6 [4]): binds
binding result (FAM19A5-M5 [1]): binds
B7: Anti-FAM19A5 (P1-A08) (antibody, V domains shown)
VH: QSLEESGGRLVTPGTPLTLTCTASGFSLSTYYMSWVRQAPGKGLEWIGIVYPSGTTYYANWAKGRFTISTASTTVDLMITSPTTEDTATYFCARGDSFGYGLWGPGTLVTVSS
VL: ELVLTQSPSVQVNLGQTVSLTCTADTLSRSYASWYQQKPGQAPVLLIYRDTSRPSGVPDRFSGSSSGNTATLTISGAQAGDEADYYCATSDGSGSNYQYVFGGGTQLTVT
notes: as for B1
